The target in one series is T1, Hsd4AMN (Mycolicibacterium neoaurum, UniProt A0A0H3W613).
T1 construct: gene hsd4A
The experiment in a line: NADH oxidation at […] nm, Michaelis-Menten fit. The format is biochemical. The settings on record: NADH 125 μM; 125 mM Tris-HCl pH 8.0; 30 °C.

In series [1] the test system is C[C@]12CC[C@H]3[C@@H](CCC4=CC(=O)CC[C@@]43C)[C@@H]1CC[C@@H]2O. In words: purified protein. Format: biochemical, Mycolicibacterium neoaurum. The settings on record: NAD+ 100 μM, 100 mM Tris-HCl pH 7.8, 30 °C, pH 7.8.
Series [2] has as its system C[C@]12CC[C@H]3[C@@H](CCC4=CC(=O)C=C[C@@]43C)[C@@H]1CC[C@@H]2O. The experiment in a line: purified protein. The settings on record: NAD+ 100 μM, 100 mM Tris-HCl pH 7.8, 30 °C, pH 7.8. The format is biochemical, Mycolicibacterium neoaurum.
Series [3] concerns CC(O)CC(=O)SCCNC(=O)CCNC(=O)[C@H](O)C(C)(C)COP(=O)(O)OP(=O)(O)OC[C@H]1O[C@@H](n2cnc3c(N)ncnc32)[C@H](O)[C@@H]1OP(=O)(O)O. In words: purified protein. The format is biochemical, Mycolicibacterium neoaurum. The settings on record: NAD+ 125 μM, 125 mM glycine-NaOH pH 9.0, 30 °C, DL mixture of substrate, pH 9.0.

As to `CC(=O)CC(=O)SCCNC(=O)CCNC(=O)[C@H](O)C(C)(C)COP(=O)(O)OP(=O)(O)OC[C@H]1O[C@@H](n2cnc3c(N)ncnc32)[C@H](O)[C@@H]1OP(=O)(O)O` [acetoacetyl-CoA], on Hsd4AMN, the Km worked out at 101 ± 27 µM.
On to “Hsd4AMN (Mycolicibacterium neoaurum ATCC 25795)”, for which the Km came to 23 ± 7 µM in series [1], 19 ± 4 µM in series [2] and 124 ± 39 µM in series [3]. For the same molecule, the Vmax in series [1] turned out to be 0.169 µmol/min/mg; in series [2], 0.217 µmol/min/mg; in series [3], 0.113 µmol/min/mg.
